# Test results published in article doi:10.1101/2023.09.10.557050 (bioRxiv, 2023).
# Changes are numbered by the printed parent chain. Numbers in names are those of the source. Where two headings read alike, the source gives them in different places.
# T1: EcNhaA WT-like triple mutant (A109T, Q277G, L296M) (E. coli), P13738
# T1 chain: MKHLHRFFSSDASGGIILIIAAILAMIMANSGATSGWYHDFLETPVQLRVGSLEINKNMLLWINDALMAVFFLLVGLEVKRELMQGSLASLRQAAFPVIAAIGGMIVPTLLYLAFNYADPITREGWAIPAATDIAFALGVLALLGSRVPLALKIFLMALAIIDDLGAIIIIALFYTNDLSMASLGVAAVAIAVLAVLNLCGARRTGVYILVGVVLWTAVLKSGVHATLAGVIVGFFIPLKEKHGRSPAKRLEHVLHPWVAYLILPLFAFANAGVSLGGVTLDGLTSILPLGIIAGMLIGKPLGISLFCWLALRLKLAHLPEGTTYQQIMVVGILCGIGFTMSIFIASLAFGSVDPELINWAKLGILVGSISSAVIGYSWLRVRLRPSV
# B1: horse NHE9* (residues 8 to 575), tag removed (domain or fragment, UniProt F7B113 8-575, looked up)
# chain: MSEKDEYQFQHQGAVELLVFNFLLILTILTIWLFKNHRFRFLHETGGAMVYGLIMGLILRYATAPTDIESGTVYDCGKLAFSPSTLLINITDQVYEYKYKREISQHNINPHLGNAILEKMTFDPEIFFNVLLPPIIFHAGYSLKKRHFFQNLGSILTYAFLGTAISCIVIGLIMYGFVKAMVYAGQLKNGDFHFTDCLFFGSLMSATDPVTVLAIFHELHVDPDLYTLLFGESVLNDAVAIVLTYSISIYSPKENPNAFDAAAFFQSVGNFLGIFAGSFAMGSAYAVVTALLTKFTKLCEFPMLETGLFFLLSWSAFLSAEAAGLTGIVAVLFCGVTQAHYTYNNLSLDSKMRTKQLFEFMNFLAENVIFCYMGLALFTFQNHIFNALFILGAFLAIFVARACNIYPLSFLLNLGRKHKIPWNFQHMMMFSGLRGAIAFALAIRDTESQPKQMMFSTTLLLVFFTVWVFGGGTTPMLTWLQIRVGVDLDEDLKERPSSHQEANNLEKSTTKTESAWLFRMWYGFDHKYLKPILTHSGPPLTTTLPEWCGPISRLLTSPQAYGEQLKED
# B2: horse NHE9*CC (L139C-I444C double mutant), tag removed (domain or fragment, UniProt F7B113 8-575, looked up)
# chain: B1 chain with L132C, I437C
# B3: EcNhaA WT-like triple mutant (A109T, Q277G, L296M), P13738 1-388 (natural protein)
# chain: T1 chain
# Assays:
# Test in all cases: cryo-EM structure
# cryo-EM structure [1] = target: the molecule itself
# cryo-EM structure [2] = target: the molecule itself; remark: listed apart in the source
# [3] = target: T1, EcNhaA WT-like triple mutant (A109T, …); settings: remark: other sources report otherwise
binder,measurement,setting,value
B1,stoichiometry N,cryo-EM structure [1],2
B2,stoichiometry N,cryo-EM structure [2],2
B3,stoichiometry N,[3],2
